# Measured values as given in patent US20100285597.
# Substitutions are numbered along the chain they refer to.
# T1: S323A point mutant of nectin-1
# T1 chain: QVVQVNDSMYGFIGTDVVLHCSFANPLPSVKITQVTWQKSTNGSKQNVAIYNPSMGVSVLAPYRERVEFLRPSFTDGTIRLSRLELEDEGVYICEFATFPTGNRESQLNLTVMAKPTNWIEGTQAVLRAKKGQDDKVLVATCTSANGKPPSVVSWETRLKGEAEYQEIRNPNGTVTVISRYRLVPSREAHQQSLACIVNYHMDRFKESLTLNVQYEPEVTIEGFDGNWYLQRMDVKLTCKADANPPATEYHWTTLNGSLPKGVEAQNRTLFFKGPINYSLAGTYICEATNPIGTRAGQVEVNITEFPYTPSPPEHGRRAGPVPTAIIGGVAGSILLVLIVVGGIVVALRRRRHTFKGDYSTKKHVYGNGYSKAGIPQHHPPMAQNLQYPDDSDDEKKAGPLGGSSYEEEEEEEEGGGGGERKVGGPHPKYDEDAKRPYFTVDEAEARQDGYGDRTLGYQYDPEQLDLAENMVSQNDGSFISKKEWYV
# T2: T310A point mutant of nectin-1
# T2 chain: T1 chain with T283A, A296S
# T3: Y311A point mutant of nectin-1
# T3 chain: T1 chain with Y284A, A296S
# B1: BACE1 (protein)
# chain: ETDEEPEEPGRRGSFVEMVDNLRGKSGQGYYVEMTVGSPPQTLNILVDTGSSNFAVGAAPHPFLHRYYQRQLSSTYRDLRKGVYVPYTQGKWEGELGTDLVSIPHGPNVTVRANIAAITESDKFFINGSNWEGILGLAYAEIARPDDSLEPFFDSLVKQTHVPNLFSLQLCGAGFPLNQSEVLASVGGSMIIGGIDHSLYTGSLWYTPIRREWYYEVIIVRVEINGQDLKMDCKEYNYDKSIVDSGTTNLRLPKKVFEAAVKSIKAASSTEKFPDGFWLGEQLVCWQAGTTPWNIFPVISLYLMGEVTNQSFRITILPQQYLRPVEDVATSQDDCYKFAISQSSTGTVMGAVIMEGFYVVFDRARKRIGFAVSACHVHDEFRTAAVEGPFVTLDMEDCGYNIPQTDESTLMTIAYVMAAICALFMLPLCLMVCQWRCLRCLRQQHDDFADDISLLK
# What was measured:
# [1] = molecular target: T1, S323A point mutant of nectin-1
# [2] = molecular target: T2, T310A point mutant of nectin-1
# [3] = molecular target: T3, Y311A point mutant of nectin-1
protein,measurement,setting,value
B1,production of CTF bands (Western blot of HEK 293 lysates),[1],Co-expression with BACE1 substantially increased production of CTF bands for the nectin-1 polypeptide mutant S323A
same,production of CTF bands (Western blot of HEK 293 lysates),[2],"somewhat less effectively increased production in the other two mutants, T310A and Y311A"
same,production of CTF bands (Western blot of HEK 293 lysates),[3],"somewhat less effectively increased production in the other two mutants, T310A and Y311A"
